Measurements from publication doi:10.1101/2021.05.05.442573, “Relief of ParB autoinhibition by parS DNA catalysis and ParB recycling by CTP hydrolysis promote bacterial centromere assembly” (bioRxiv, 2021).

B1: ParB(R105C, H133C), purified (natural protein, B. subtilis, UniProt P26497 1-282, looked up)
chain: MAKGLGKGINALFNQVDLSEETVEEIKIADLRPNPYQPRKHFDDEALAELKESVLQHGILQPLIVRKSLKGYDIVAGERRFRAAKLAGLDTVPAIVRELSEALMCEIALLENLQREDLSPLEEAQAYDSLLKCLDLTQEQLAKRLGKSRPHIANHLRLLTLPENIQQLIAEGTLSMGHGRTLLGLKNKNKLEPLVQKVIAEQLNVRQLEQLIQQLNQNVPRETKKKEPVKDAVLKERESYLQNYFGTTVNIKRQKKKGKIEIEFFSNEDLDRILELLSERES
notes: Purification as in Soh et al., 2019; source: E. coli BL21-Gold (DE3), untagged, purified (ammonium sulfate, heparin, HiTrap SP, Superdex 200)
B2: ParB(A102C, H133C), purified (natural protein, B. subtilis, UniProt P26497 1-282, looked up)
chain: MAKGLGKGINALFNQVDLSEETVEEIKIADLRPNPYQPRKHFDDEALAELKESVLQHGILQPLIVRKSLKGYDIVAGERRFRAAKLAGLDTVPAIVRELSECLMREIALLENLQREDLSPLEEAQAYDSLLKCLDLTQEQLAKRLGKSRPHIANHLRLLTLPENIQQLIAEGTLSMGHGRTLLGLKNKNKLEPLVQKVIAEQLNVRQLEQLIQQLNQNVPRETKKKEPVKDAVLKERESYLQNYFGTTVNIKRQKKKGKIEIEFFSNEDLDRILELLSERES
notes: as for B1
B3: ParB(T22C, E111Q), purified (natural protein, B. subtilis, UniProt P26497 1-282, looked up)
chain: MAKGLGKGINALFNQVDLSEECVEEIKIADLRPNPYQPRKHFDDEALAELKESVLQHGILQPLIVRKSLKGYDIVAGERRFRAAKLAGLDTVPAIVRELSEALMREIALLQNLQREDLSPLEEAQAYDSLLKHLDLTQEQLAKRLGKSRPHIANHLRLLTLPENIQQLIAEGTLSMGHGRTLLGLKNKNKLEPLVQKVIAEQLNVRQLEQLIQQLNQNVPRETKKKEPVKDAVLKERESYLQNYFGTTVNIKRQKKKGKIEIEFFSNEDLDRILELLSERES
notes: the combination is not spelled out for the purified protein; also called EQ mutant; source: E. coli BL21-Gold (DE3), untagged, purified (ammonium sulfate, heparin, HiTrap SP, Superdex 200)
B4: ParB(T22C), purified (natural protein, B. subtilis, UniProt P26497 1-282, looked up)
chain: MAKGLGKGINALFNQVDLSEECVEEIKIADLRPNPYQPRKHFDDEALAELKESVLQHGILQPLIVRKSLKGYDIVAGERRFRAAKLAGLDTVPAIVRELSEALMREIALLENLQREDLSPLEEAQAYDSLLKHLDLTQEQLAKRLGKSRPHIANHLRLLTLPENIQQLIAEGTLSMGHGRTLLGLKNKNKLEPLVQKVIAEQLNVRQLEQLIQQLNQNVPRETKKKEPVKDAVLKERESYLQNYFGTTVNIKRQKKKGKIEIEFFSNEDLDRILELLSERES
notes: as for B1
B5: ParB(T22C, E78Q), purified (natural protein, B. subtilis, UniProt P26497 1-282, looked up)
chain: MAKGLGKGINALFNQVDLSEECVEEIKIADLRPNPYQPRKHFDDEALAELKESVLQHGILQPLIVRKSLKGYDIVAGQRRFRAAKLAGLDTVPAIVRELSEALMREIALLENLQREDLSPLEEAQAYDSLLKHLDLTQEQLAKRLGKSRPHIANHLRLLTLPENIQQLIAEGTLSMGHGRTLLGLKNKNKLEPLVQKVIAEQLNVRQLEQLIQQLNQNVPRETKKKEPVKDAVLKERESYLQNYFGTTVNIKRQKKKGKIEIEFFSNEDLDRILELLSERES
notes: as for B3

Target: the molecule itself
Experiment: cross-linking; in vitro BMOE cysteine cross-linking of purified ParB (10 uM monomer, 1 mM BMOE, 5 min RT; 150 mM NaCl, 50 mM Tris-HCl pH 7.5, 5 mM MgCl2); without ligand, with 1 mM CTP or CTPγS, with 1 uM 40 bp parS DNA, or with both; SDS-PAGE, Coomassie

Binding result, binds:
B1, B2, B3, B4, B5
